From the supplement of paper PMC10065799, “High-throughput profiling of sequence recognition by tyrosine kinases and SH2 domains using bacterial peptide display” (eLife, 2023)

Assays:
AncSZ = experiment: phosphorylation enrichment, bacterial display (enrichment ratio); higher = better substrate or ligand; peptides without Tyr show the background
EPHB1 = EPHB1 (UniProt P54762); experiment: as above
EPHB2 = EPHB2 (UniProt P29323); experiment: as above
FGFR1 = FGFR1 (UniProt P11362); experiment: as above
FGFR3 = FGFR3 (UniProt P22607); experiment: as above
Fer (mouse) = experiment: as above
Fes = Fes (UniProt P07332); experiment: as above
Fes, sequence (P07332 whole entry, looked up): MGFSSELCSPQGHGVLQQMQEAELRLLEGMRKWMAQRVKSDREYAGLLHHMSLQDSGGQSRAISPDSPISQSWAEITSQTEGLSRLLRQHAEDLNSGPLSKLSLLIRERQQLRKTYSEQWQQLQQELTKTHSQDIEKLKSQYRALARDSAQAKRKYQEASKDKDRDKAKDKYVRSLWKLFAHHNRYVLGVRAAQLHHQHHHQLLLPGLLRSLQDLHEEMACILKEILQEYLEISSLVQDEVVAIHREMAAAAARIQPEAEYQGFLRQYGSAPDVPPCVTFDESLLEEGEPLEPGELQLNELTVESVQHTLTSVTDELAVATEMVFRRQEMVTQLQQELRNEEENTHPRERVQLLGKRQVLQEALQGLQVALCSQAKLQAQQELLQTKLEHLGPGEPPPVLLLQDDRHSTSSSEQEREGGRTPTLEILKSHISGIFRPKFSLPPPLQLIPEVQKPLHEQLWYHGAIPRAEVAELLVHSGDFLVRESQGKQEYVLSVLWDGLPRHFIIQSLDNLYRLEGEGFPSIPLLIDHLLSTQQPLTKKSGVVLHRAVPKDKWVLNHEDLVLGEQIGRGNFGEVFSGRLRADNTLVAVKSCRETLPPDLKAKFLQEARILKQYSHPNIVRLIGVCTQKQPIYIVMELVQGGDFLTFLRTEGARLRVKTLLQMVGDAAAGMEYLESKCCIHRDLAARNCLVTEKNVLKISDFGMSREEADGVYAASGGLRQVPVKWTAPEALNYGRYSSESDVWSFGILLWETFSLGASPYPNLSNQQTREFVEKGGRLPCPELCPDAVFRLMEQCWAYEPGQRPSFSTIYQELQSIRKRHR

Fyn = Fyn (UniProt P06241); experiment: as above
Fyn, sequence (P06241 whole entry, looked up): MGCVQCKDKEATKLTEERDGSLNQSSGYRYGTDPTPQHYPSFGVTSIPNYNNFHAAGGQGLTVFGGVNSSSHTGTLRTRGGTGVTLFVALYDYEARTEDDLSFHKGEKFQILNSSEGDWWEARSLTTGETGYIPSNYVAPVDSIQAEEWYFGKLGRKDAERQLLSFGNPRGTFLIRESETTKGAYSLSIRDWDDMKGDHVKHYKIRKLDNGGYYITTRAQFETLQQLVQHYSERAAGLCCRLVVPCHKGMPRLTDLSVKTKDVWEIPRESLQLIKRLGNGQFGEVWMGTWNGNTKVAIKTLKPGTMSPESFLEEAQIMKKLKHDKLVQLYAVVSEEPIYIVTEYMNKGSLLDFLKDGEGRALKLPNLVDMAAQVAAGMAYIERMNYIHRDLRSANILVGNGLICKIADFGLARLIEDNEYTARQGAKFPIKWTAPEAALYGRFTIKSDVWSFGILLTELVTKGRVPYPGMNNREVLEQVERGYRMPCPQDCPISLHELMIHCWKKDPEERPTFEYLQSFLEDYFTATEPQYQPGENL

Hck = Hck (UniProt P08631); experiment: as above
Hck, sequence (P08631 whole entry, looked up): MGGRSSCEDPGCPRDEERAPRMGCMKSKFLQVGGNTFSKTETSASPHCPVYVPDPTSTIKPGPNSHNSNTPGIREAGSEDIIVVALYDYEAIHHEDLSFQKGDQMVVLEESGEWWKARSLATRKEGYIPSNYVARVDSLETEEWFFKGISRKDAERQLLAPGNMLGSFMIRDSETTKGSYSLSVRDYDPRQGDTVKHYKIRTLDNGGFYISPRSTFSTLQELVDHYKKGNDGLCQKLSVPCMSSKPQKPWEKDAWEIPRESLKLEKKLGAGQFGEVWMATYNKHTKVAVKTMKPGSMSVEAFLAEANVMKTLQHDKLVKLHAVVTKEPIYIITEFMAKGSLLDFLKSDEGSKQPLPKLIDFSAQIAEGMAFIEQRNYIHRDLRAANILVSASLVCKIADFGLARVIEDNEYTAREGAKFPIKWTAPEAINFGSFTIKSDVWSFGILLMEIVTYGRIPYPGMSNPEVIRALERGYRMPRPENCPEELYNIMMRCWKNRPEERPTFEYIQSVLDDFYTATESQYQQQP

Jak2 = Jak2 (UniProt O60674); experiment: as above
Jak2, sequence (O60674 whole entry, looked up): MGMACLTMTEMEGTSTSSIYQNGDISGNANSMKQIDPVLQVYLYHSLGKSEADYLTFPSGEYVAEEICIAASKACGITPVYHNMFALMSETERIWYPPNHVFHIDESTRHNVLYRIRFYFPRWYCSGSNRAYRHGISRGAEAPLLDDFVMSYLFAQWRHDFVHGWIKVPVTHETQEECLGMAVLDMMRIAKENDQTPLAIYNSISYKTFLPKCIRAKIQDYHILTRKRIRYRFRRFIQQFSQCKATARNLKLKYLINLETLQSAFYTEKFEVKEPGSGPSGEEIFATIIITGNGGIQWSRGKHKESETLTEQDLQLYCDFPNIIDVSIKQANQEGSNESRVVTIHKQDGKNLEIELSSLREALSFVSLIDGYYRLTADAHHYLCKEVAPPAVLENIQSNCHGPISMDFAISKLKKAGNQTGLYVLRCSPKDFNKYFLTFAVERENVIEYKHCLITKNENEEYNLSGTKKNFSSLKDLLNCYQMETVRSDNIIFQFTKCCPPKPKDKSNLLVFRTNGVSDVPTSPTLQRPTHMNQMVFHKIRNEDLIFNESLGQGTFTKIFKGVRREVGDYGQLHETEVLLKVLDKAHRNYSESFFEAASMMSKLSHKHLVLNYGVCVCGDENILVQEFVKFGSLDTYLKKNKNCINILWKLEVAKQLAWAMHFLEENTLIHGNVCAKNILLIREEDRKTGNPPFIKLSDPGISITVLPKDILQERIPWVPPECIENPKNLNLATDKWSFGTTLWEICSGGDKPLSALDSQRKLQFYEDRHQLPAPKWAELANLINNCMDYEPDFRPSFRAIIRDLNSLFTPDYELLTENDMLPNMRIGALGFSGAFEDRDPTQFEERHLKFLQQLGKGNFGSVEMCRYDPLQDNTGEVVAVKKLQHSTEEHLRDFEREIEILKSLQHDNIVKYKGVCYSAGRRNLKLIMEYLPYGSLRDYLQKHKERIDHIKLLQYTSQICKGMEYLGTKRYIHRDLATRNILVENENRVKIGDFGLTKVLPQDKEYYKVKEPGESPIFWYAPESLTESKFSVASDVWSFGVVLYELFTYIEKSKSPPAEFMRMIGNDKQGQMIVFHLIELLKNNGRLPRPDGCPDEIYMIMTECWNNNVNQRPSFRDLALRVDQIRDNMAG

MERTK = MERTK (UniProt Q12866); experiment: as above
c-Abl (mouse) = experiment: as above
c-Src = experiment: as above
Grb2 SH2 = Grb2 SH2 (UniProt P62993); experiment: SH2 binding enrichment of the phosphorylated peptide, bacterial display (enrichment ratio); higher = better substrate or ligand; peptides without Tyr show the background
SHP2-C SH2 = experiment: as above
c-Src SH2 = experiment: as above
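Throughout, for SH2 binding enrichment of the phosphorylated peptide, bacterial display: peptide library displayed on the E. coli surface as eCPX fusions, selected cells deep-sequenced, score is each peptide's frequency after selection divided by its frequency in the input.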
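Throughout, for phosphorylation enrichment, bacterial display: 11-residue human phosphosite peptides and single-mutation variants displayed on the E. coli surface, counted by deep sequencing, each peptide's frequency after selection divided by its frequency in the unselected input library; frequency after pTyr selection over input frequency; kinase dosed for 20-30% of maximal phosphorylation in three min.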

EPHB2, sequence (P29323 whole entry, looked up): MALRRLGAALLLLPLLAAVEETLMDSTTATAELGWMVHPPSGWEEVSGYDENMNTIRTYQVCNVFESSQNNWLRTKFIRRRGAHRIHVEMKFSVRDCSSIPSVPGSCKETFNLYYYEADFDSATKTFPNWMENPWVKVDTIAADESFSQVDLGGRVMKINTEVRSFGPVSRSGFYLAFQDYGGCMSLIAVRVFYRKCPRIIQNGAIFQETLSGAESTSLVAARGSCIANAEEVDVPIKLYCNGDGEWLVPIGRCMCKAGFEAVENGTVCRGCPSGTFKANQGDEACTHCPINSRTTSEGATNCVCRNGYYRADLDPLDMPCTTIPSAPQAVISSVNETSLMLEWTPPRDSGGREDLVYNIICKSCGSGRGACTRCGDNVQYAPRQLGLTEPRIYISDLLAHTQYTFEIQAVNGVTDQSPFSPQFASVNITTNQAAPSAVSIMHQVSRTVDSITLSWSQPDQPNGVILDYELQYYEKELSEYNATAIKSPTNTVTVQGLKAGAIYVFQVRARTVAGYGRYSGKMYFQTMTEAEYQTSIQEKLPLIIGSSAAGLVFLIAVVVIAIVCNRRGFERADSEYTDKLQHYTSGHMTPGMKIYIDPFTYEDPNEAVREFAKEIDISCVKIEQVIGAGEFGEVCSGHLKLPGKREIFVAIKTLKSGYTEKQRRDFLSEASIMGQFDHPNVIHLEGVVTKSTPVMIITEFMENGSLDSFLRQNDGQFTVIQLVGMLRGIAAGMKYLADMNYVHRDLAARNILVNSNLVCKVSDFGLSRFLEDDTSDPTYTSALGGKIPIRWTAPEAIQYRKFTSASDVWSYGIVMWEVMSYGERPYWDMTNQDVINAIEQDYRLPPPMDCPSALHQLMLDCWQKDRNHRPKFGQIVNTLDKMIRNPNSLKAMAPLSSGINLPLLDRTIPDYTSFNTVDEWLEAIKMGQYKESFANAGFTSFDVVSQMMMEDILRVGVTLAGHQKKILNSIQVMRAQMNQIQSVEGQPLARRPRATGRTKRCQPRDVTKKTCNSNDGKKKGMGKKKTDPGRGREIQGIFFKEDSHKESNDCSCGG
EPHB1, sequence (P54762 whole entry, looked up): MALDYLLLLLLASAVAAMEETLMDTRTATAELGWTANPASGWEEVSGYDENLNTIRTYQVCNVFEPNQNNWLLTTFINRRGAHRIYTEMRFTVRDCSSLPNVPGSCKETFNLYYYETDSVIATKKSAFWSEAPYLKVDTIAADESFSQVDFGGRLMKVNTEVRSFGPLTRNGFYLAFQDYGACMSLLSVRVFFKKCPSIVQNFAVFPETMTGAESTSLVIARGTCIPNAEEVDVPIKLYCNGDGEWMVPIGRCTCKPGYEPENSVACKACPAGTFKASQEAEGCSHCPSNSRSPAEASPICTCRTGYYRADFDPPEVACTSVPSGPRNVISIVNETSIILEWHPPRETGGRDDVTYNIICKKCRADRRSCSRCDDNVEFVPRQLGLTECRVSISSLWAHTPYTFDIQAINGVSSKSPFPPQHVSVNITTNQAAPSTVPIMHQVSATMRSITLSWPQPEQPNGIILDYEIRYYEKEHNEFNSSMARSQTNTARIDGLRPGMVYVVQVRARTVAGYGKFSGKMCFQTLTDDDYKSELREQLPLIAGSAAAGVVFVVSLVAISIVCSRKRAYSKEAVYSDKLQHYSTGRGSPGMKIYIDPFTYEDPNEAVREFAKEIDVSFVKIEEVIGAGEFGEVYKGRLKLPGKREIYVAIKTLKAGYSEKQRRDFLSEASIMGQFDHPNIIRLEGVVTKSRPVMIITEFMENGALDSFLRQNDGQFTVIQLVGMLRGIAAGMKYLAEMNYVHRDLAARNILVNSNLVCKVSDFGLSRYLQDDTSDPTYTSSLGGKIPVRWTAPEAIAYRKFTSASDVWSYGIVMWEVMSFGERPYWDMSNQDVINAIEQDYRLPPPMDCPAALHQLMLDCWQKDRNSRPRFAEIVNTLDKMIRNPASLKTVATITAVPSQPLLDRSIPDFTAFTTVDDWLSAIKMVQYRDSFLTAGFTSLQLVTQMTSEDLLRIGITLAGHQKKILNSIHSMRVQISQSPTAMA

Sequence	SH2 binding enrichment (Grb2 SH2)	SH2 binding enrichment (SHP2-C SH2)	SH2 binding enrichment (c-Src SH2)	phosphorylation enrichment (AncSZ)	phosphorylation enrichment (EPHB1)	phosphorylation enrichment (EPHB2)	phosphorylation enrichment (FGFR1)	phosphorylation enrichment (FGFR3)	phosphorylation enrichment (Fer (mouse))	phosphorylation enrichment (Fes)	phosphorylation enrichment (Fyn)	phosphorylation enrichment (Hck)	phosphorylation enrichment (Jak2)	phosphorylation enrichment (MERTK)	phosphorylation enrichment (c-Abl (mouse))	phosphorylation enrichment (c-Src)
REGAKYVSHCA [ASS1_Y113_G117C]	1.04	0.723	0.676	0.776	0.618	0.506	0.643	0.445	0.633	0.86	0.822	0.489	0.652	0.504	0.825	0.516
PSAVAYPKRSQ [MARK3_Y432_V429A]	1.06	0.646	0.473	0.697	0.544	0.563	0.382	0.545	0.444	0.818	0.563	0.441	0.577	0.685	0.615	0.696
ATGLIYIGSHD [AASDH_Y870_T865A]	0.759	0.526	0.598	0.827	0.724	0.724	0.427	0.684	0.52	1.15	0.427	0.469	0.809	0.543	0.881	0.492
NETNKYQISVN [FGB_Y368_A365T]	0.889	0.581	0.432	0.653	0.427	0.46	0.411	0.575	0.375	0.709	0.415	0.412	0.684	0.418	0.57	0.329
VDGSVYKLHPS [GCK_Y413]	0.755	1.01	0.488	0.581	0.467	0.543	0.536	0.583	0.642	0.655	2.64	1.03	0.735	0.424	0.614	3.28
QKFMAYLSQGW [HLCS_Y236_G241W]	0.917	1.5	0.689	1.19	0.812	1.05	0.668	1.14	0.86	1.32	0.639	0.501	1.75	0.83	0.903	0.439
INVTIYGKTFR [EFHC1_Y177_I174V]	0.76	0.581	0.572	1.18	0.631	0.588	0.539	0.756	0.625	1.29	0.547	0.609	1.1	0.644	0.868	0.641
RDMMDYMLQGV [CYP21A2_Y259]	0.812	0.997	0.531	1.2	1.34	0.827	0.73	0.869	0.612	1.19	0.673	0.581	1.63	0.488	0.962	1.09
TLSGIYQYSIA [FOXL2_Y81_I84S]	0.814	1.83	1.93	1.24	2.73	1.98	0.952	1.03	8.33	0.899	4.22	3.56	0.65	6.7	1.53	4.21
ENGPFYTSFPP [GDAP2_Y488_YF]	0.813	0.711	0.83	1.12	2.92	2.41	3.86	2.62	4.74	1.04	8.74	7.05	1.61	13.1	8.39	6.71
RRAKGYPIDLY [ITGB2_Y125]	0.707	0.627	0.466	1.07	0.684	0.87	0.718	0.889	0.73	1.29	0.787	1.18	1.34	1.17	0.868	1.28
FGAHNYHPLPV [OAT_Y55_YF]	0.817	0.493	0.893	1.64	0.573	0.677	6.41	3.33	0.35	0.535	0.468	0.606	0.58	1.04	0.562	0.538
KAEELYIGVTV [EFHC2_Y509]	0.648	0.756	0.411	2.15	0.921	0.772	2.35	2.33	5.31	1.35	2.06	2.75	0.966	1.42	0.988	2.2
LHSEAYLKFIE [PBRM1_Y1610_YF]	0.887	0.881	0.39	1.56	0.877	0.881	0.939	1.21	1.1	1.51	0.856	0.813	1.37	0.556	0.886	0.486
NPPGMYPVTGP [LPP_Y346]	0.638	0.547	0.418	0.649	0.375	0.325	0.394	0.396	0.649	0.531	0.336	0.375	0.482	0.348	0.506	0.389
HSGLAYTMERS [GLUD1_Y512]	0.698	0.733	0.314	0.933	0.897	0.495	0.403	0.543	0.561	1.26	0.685	0.383	0.985	0.521	0.56	0.763
CEETFYTMKMN [MASP2_Y401_V405M]	0.771	0.657	0.575	1.99	0.939	0.894	0.666	1.11	0.935	1.87	1.59	1.09	1.83	0.829	1.3	2.6
YTNELYMMMRD [FGFR1_Y730_C725Y]	2.09	0.645	1.63	1.68	5.42	3.13	2.52	2.27	0.982	1.35	1.4	2.85	1.35	5.02	0.766	2.18
IGEGTYGQVFK [CDK13_Y716_YF]	0.774	0.808	0.426	0.456	0.62	1.18	0.324	0.402	0.636	0.665	10.8	8.97	0.569	0.428	0.566	7.69
YDRREYSRFEK [ITGB7_Y758]	1.02	0.813	0.737	0.902	0.486	0.483	0.459	0.554	0.545	0.957	0.498	0.673	0.925	0.512	0.96	0.702
IFHLSYHHNCE [PDE6B_Y227_L228H_YF]	1.14	1.16	0.873	1.15	0.567	0.635	0.499	0.694	0.517	1.18	0.522	0.478	0.831	0.381	0.588	0.455

Now from value to sequence, other results behind:

SH2 binding enrichment (Grb2 SH2)	SH2 binding enrichment (SHP2-C SH2)	SH2 binding enrichment (c-Src SH2)	Sequence	phosphorylation enrichment (AncSZ)	phosphorylation enrichment (EPHB1)	phosphorylation enrichment (EPHB2)	phosphorylation enrichment (FGFR1)	phosphorylation enrichment (FGFR3)	phosphorylation enrichment (Fer (mouse))	phosphorylation enrichment (Fes)	phosphorylation enrichment (Fyn)	phosphorylation enrichment (Hck)	phosphorylation enrichment (Jak2)	phosphorylation enrichment (MERTK)	phosphorylation enrichment (c-Abl (mouse))	phosphorylation enrichment (c-Src)
0.702	0.648	0.401	IENKPYGMSDP [RET_Y1062_L1061P]	0.761	0.55	0.508	0.504	0.599	0.483	0.861	0.41	0.458	0.869	0.41	0.549	0.414
0.79	0.757	0.814	SAPDSYIRIGN [SLC38A4_Y27_G29R]	0.594	0.359	0.396	0.424	0.436	0.35	0.796	0.357	0.47	0.52	0.488	0.483	0.352
0.618	1.02	0.772	PKSWNYELPAT [PROM1_Y34_A31S]	2.37	1.67	1.67	1.39	1.65	1.06	1.45	1.13	1.26	0.658	1.07	0.605	0.448
0.763	0.727	0.505	IQTDGYRAPEA [UHMK1_Y197]	0.601	0.782	0.496	0.447	0.382	0.461	0.829	0.428	0.717	1.25	0.491	0.725	0.398
0.697	0.617	0.697	RKVAQYMLENE [SLC16A6_Y224_E221V]	0.876	0.612	0.901	0.648	0.933	0.861	0.859	0.716	0.718	1.03	0.465	0.506	0.389
1.15	0.639	0.608	AAQNCYKVTNA [TPI1_Y105_G110A]	0.522	0.355	0.455	0.367	0.46	0.354	0.639	0.454	0.36	0.552	0.62	0.466	0.44
0.805	0.612	0.519	LRFDSYSSFCN [SLC20A2_Y433_YF]	1.54	0.736	0.734	0.703	1.1	0.617	1.52	0.464	0.687	1.37	0.479	0.833	0.642
0.627	1.33	1.51	LAIERYVVVSK [RHO_Y136_C140S]	0.86	0.499	3.45	0.843	0.701	0.459	1.04	0.596	0.443	0.744	0.515	0.935	0.396
0.979	0.873	0.634	GLVFLYMEKNQ [PRELP_Y156]	0.932	0.607	0.523	0.339	0.719	0.635	1.18	0.304	0.337	1.17	0.262	0.854	0.37
1.06	0.626	0.6	ECKFLYSRKEG [PTPN11_Y263_L261F]	0.969	0.576	0.594	0.495	0.593	0.362	0.939	0.537	0.618	0.849	0.436	0.639	0.423
1.38	3.46	1.7	VDSNPYSRLVA [UBA5_Y53_M57V]	0.743	0.55	0.584	0.465	0.559	0.785	0.64	0.553	1.21	0.611	0.445	0.648	1.02
0.732	0.669	0.586	PTKNDYWAMPA [WWOX_Y287_L291P]	2.02	18.6	14.4	20.6	16.3	0.469	1.03	0.987	1.82	2.69	5.26	1.39	0.952
